Assay: yeast display, Sf9 membrane polyspecificity reagent, FACS + sequencing; frameworks hold sequencing errors
In short: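 Nanobodies from a synthetic yeast display library (Saccharomyces cerevisiae BJ5465), induced 36–48 hours with galactose, were stained 1 hour at 4 °C with 10% biotinylated, detergent-solubilized Sf9 membrane reagent, enriched on streptavidin microbeads, then FACS-sorted. Anti-HA (expression) and streptavidin (reagent binding) fluorescence set low and high (top ~1%) gates. Polyreactivity labels come from the gate of origin. Genes were colony-PCR amplified, MiSeq 2 × 250 sequenced and filtered by CDR length.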

Sequence | polyreactivity (PSR sort gate)
QVQLVESGGRLVQAGGSLRLSCAASGLIYSRYAMGGYRQAPGKEREFVATISWSGGSRYYADSVKGRFTISRDNAKNTVYLQMNSLKPEDTAVYYCATKKWYYPGDSKYYYWGQGTQVTVSS | high polyreactivity
QVQLVESGGRLVQAGGSLRLSCAASGLTFGRYAMGWYSQAPGKERELVASISQRGGSSYYADSVKGRFTISRDNAKNTVFLQMNSLKPEDTAVYYCNARVRDIYRYSMDSWGQGTQVTVSS | low polyreactivity
QVQLVESGGRLVQAGGSLRLSCAASGLTFSGYAMGWYRQAPGKERELVAAISGGGGSTYYADSVKGRFTISRDNAKNTVYLQMNSLKPEDTAVYYCAARPRWYTYTRQEYDYWGQGTQVTVSS | high polyreactivity
QVQLVESGGRLVQAGGSLRLSCAASGRIFASNAMGWYRQAPGKERELVAAITTTGGSTYYADSVKGRFTISRDNAKNTVYLQMNSLKPEDTAVYYCAARAIPRVRRYGSMNYWGQGTQVTVSS | high polyreactivity
QVQLVESGGRLVQAGGSLRLSCAASGRIFGYYAMGWYRQAPGKERELVAAINYSGGSTYYADSVKGRFTISRDNAKNTVYLQMNSLKPEDTAVYYCNAVRYTLLYYWGQGTQVTVSS | high polyreactivity
QVQLVESGGRLVQAGGSLRLSCAASGRIFNNYAMGWYRQAPGKERELVAAISGGGSTNYADSVKGRFTISRDNAKNTVYLQMNSLKPEDTAVYYCASGYLKASRDLYETVPYDYWGQGTQVTVSS | low polyreactivity
QVQLVESGGRLVQAGGSLRLSCAASGRIFRDNAMGWYRQAPGKEMELVATIRSGTNTNYADSVKGRFTISRDYAKNTVYLQMNSLKPEDTAVYYCAADLWGSHYTEYRRYPYEYDYWGQGTQVTLSS | low polyreactivity
QVQLVESGGRLVQAGGSLRLSCAASGRIFRYNAMGWYIQAPGKEREFVAAIRGSSSRTYYADSVKGRFTISRDNAKNTVYLQMNSLKPEDTAVYYCNAYVYYSHEDDYWGQGTQVTVSS | high polyreactivity
QVQLVESGGRLVQAGGSLRLSCAASGRIFRYNAMGWYRQAPGKEREFVARISVITGRTYYADSVKGRFTISRDIAKNTVYLQMNSLKPEDTAVYYCAADAGYNYRYLLRGDYWGQGTQVTVSS | high polyreactivity
QVQLVESGGRLVQAGGSLRLSCAASGRIFSRYAMGWYRPAPGKERELVATITWSGGSTYYADSVKGRFTISRDNAKNTVYLQMNSLKPEDTAVYYCNADVTYLYKMDYWGQGTQVTVSS | low polyreactivity
QVQLVESGGRLVQAGGSLRLSCAASGRILRYYALGWYRQAPGKERELVASISRGGSTYYADSVKGRFTISRDNAKNTVYLQMNSLKPEDTAVYDCATEVRRSTREFGYWGQGTQVTVSS | high polyreactivity
QVQLVESGGRLVQAGGSLRLSCAASGRTFGKYVMGWYRQAPGKERELVAAISRSGGGTYYADSVKGRFTISRDNAKNTVYLQMNSLKPEDTAVYYCAKGSRSNIFQDSYNYWGQGSQVTVSS | high polyreactivity
QVQLVESGGRLVQAGGSLRLSCAASGRTFGYNTMGWYRPAPGKEREVVARITWSGASTYYADSVKGRFTISRDNAKNTVYLQMNSLKPEDTAVYYCNTADTVSWRSPYDYWGQGTQVTVSS | high polyreactivity
QVQLVESGGRLVQAGGSLRLSCAASGRTFHRYAMGWYRQAPGKERELVAAITSSGGSTNYADSVKGRFTISRDNAKNTVYLQMNSLKPEDTAVYYCATVRYRYTSHPWSRGFDYWGQGTQVTVSS | low polyreactivity
QVQLVESGGRLVQAGGSLRLSCAASGRTFPYNAMGWSRQAPRKERELVAAITWSGGSTYYADSVKGRFTISRDNAKNTVYLQMNSLKPEDTAVYYCAADEIYGYDYWGQGTQVTVSS | high polyreactivity
QVQLVESGGRLVQAGGSLRLSCAASGRTIGLNGMGWYRQAPGTERELVAGISWSGGSTNYADSVKGRFTISRDNAKNTVYLQMNSLKPEDTAVYYCAADFVYYVVNDFGWSYAYEYWGQGTQVTVSS | low polyreactivity
QVQLVESGGRLVQAGGSLRLSCAASGSIFKYYVMGWYRQAPGKERELVAAISSGGGSTYYADSVKGRFTISRDNAKNSVYLQMNSLKPEDTAVYYCNKKYRSRWQGPFDYWGQATQVTVSS | high polyreactivity
QVQLVESGGRLVQAGGSLRLSCAASGSIFSYYAMGWYRQATGKERELVASISSAGSTNYADSVKGRFTISRDNAKNTVYLQMNSLKPEDTAVYYCNTDDDSSSTGYYSWGQGTQVTVSS | low polyreactivity
QVQLVESGGRLVQAGGSLRLSCAASGSIFYGYTMGWYRQAPGKERELVATISGRGGSTYYADSVKGRFTISRDNAKTTVYLQMNSLKPEDTAVYYCNSGKYYYNYGFWGQGTQVTVSS | high polyreactivity
QVQLVESGGRLVQAGGSLRLSCAASGSTFARNAMGWYRQAPGKERELVAAISSSGGRTYYADSVKGRFTISRDNAKNTVYLQMNSLKPEDTAVYYCAAAFSLGMYWGQGTQVTVSS | high polyreactivity
QVQLVESGGRLVQAGGSLRLSCAASGSTFQYNAMGWYRQAPGKERELVAAISLSGGSTYYADSVKGRFTISRDNAKNRVYLQMNSLKPEDTAVYYCAARQWYRYKVRFDYWGQGTQVTVSS | high polyreactivity
QVQLVESGGRLVQAGGSLRLSCAASGSTIYGYAMGWYRQAPGKERELVATIRSGGSTYYADSVKGRFTISRDNAKNTVYLQMNCLIPEDTAVYYCAAKRWRGYGGGYSWGQGTQVTVSS | high polyreactivity

Sequence | polyreactivity (PSR sort gate)
QVQLVESGGRLVQAGGSLRLSCAASGSTLFAYAMGSYRQAPGKETELVASISSGGNTNYADSVKGRFTISRDNSKNSVYLQMYSLKPEDTAVYYCNAGVPYHYPSYTYLYYYWGQGTQVTVSS | low polyreactivity
QVQLVESGGRLVQAGGSLRLSCAASGYIFFHYSRGWYRQAPGTERELVAANTSGGSTNYADSVKGRFTMSRDNAKNTDYLQMNSLKPEDTAVYYCAARGWINSKRLYALWGFDYWGQGTQVTVSS | low polyreactivity
QVQLVESGGRLVQAGGSLRLSCAPSGIILSLYAMGWYRQAPGKVRELVATIRFSGVSTYYADSVKGRFTISRDNAKNTLYLQLTSLKPEDTAVYYCNKHLATTFTVSRFDYWGQGTQVTVSS | low polyreactivity
QVQLVESGGRLVQAGGSLRLSCAPSGRIFQPNVMGWSRQAPGKERELVAAIRSGSSTYYADSVKGRFTISRDNAKYSVYLQMNSLKPEDTAVYYCAARLFLPGYTRVNYLGQGTQVTVSS | high polyreactivity
QVQLVESGGRLVQAGGSLRLSCAPSGRTLGRYTMGWYRQAPGKERELVAGISSGGSTNYADSVKGRFTISRDNAKNTVYLQMNSLKPEDTAVYYCNSRGYSYGARYYYWGQGTQVTLSS | high polyreactivity
QVQLVESGGRLVQAGGSLRLSCDASGRTSRRNAMGWYRQAPGKERELVAGITWRGGSTYYADSVKGRFTISRDNAKNTVYLQMNSLKPEDPEVYYCAAYTYPHEYDYWGQGTQVTVSS | low polyreactivity
QVQLVESGGRLVQAGGSLRLSCDASGSIFAYYAMGGYRQAPGKERELVAAMCSGGGTYYADSVKGRFTISRDKAKTTVYLQMNSLKPEDTAVYYCAADGLWHIFYPGTGVDYWGQGTQVTVSS | low polyreactivity
QVQLVESGGRLVQAGGSLRLSCPASGIIRGTNAMGGYRQAPGKERELVASITSGAGITYYADSVKGRFTISRDNAKNTVYLQMNSLKPEDTAVYYCNTYPYLWGQGTQVTVSS | low polyreactivity
QVQLVESGGRLVQAGGSLRLSCPDSGSTFILNAMGWYRQAHGKERELVATISSSVTSTYYADSVKWRFTISRDHAKNTVYLQMNSLKPEDTAVYYCNADYYTTSYLQRFYHYGVEYDYLGQGTQVTVSS | low polyreactivity
QVQLVESGGRLVQAGGSLRLSGAASGIIFRTNAMGWSRQAPGKEREFVAAISAGGTRTYYADSVKGRFTISRDYAKNTVYLQMNSLKPEDTAVYFCAAASGYDYWGQGTQVTVSS | high polyreactivity
QVQLVESGGRLVQAGGSLRLSSAPSGSIFFWYAMGWYRQAPGKERELVAAITQRTGSTYYADSVKGRFTISRDNAKNTVYLQMNSLKPEDTAVYYCAAKRLRRSFTGNYWGQGTQVTVSS | high polyreactivity
QVQLVESGGRLVQAGGSLRLTCAASGRIFSVNAMGWYRQAPGKERELVAAITPGASTNYADSVKGRFTISRDNAKNTVYLQMTSLKPEDTAVYYCAAGWVSFEDWVLGSYYEYDYWGQGTHVTVSS | low polyreactivity
QVQLVESGGRLVQAGGSLRLTCAASGSTFIIYAIGWSRQAPGQERELVAASTSGGSTYYADSVKGRFRISRDNAKNSVYLQMNSLKQEDTAVYYCAARAWRGSFRDGYWGQGTQVTVSS | high polyreactivity
QVQLVESGGRLVQAGGSLSLSCAASGIILLHYAMGWYRQAPGKERELVAAISSSGGRTYYADSVKGRFTISRDTAKITFYLQLTSLKPEDTAVYYCNTLTRLVYDGMGYWGQGTQVTVSS | high polyreactivity
QVQLVESGGRLVQARGSLRLSCAPSGSIFYSNAMGSYRQAPGKEREFVAGIRSGGITNYADSVKGRFTISRDNAKNTVYLQMTSLKPEDTAVYYCAKLKDHGRYAYAFDYWRQGTQVTVSS | low polyreactivity
QVQLVESGGRLVQAVGRLRLSCAASGFIFSRYAMRWYRPAPGKERELVAVISYSGGITYYADSVKGRFTISRDNAKNTVYLQMNSLKPEDTAVYYCAVGGTPRYSKYDYWGQGTQVTVSS | low polyreactivity
QVQLVESGGRLVQEGGSLRLSCAASGSSLRSYAMGRYRQAPGKERELLAAISGSGDSTYYADSVKGRFTISRDNAKNTVYLQMNSLKPEDTAVYYCNAVFAFNGYVYWGQGTQVTVSS | low polyreactivity
QVQLVESGGRLVQEGGSLRLSCAASGSTFKQYAMGWYRQAPGKEWELVAAISRSGSRTYYADSVKGRFTISRDNAKYTVYLQMNSLKPEDTAVYYCAAERRSTAGWLYDYWGQGTQVTVSS | high polyreactivity
QVQLVESGGVIFQAGGILRLICAASGRIFARNAMGWYRQAPGKERELVAAISRSGGPTYYADSVKGRFTISRDNAKNSVYLQMNSLKTEDTGVYYCAADHYPWWAWEFDYWGQGTQVTVSS | low polyreactivity
QVQLVESGGVLGQAGGSLRLSCAASGFIFSTYTMAWYRPAPGKERDLVAAISRSGGRTYYADSVKGRFTISRDNAKYTVYLQMNSLKPEDTAVYYCNAAKGGRYPDYDYWGQGTQVTVSS | high polyreactivity
QVQLVESGGVLVQAGASLRLSCAASGFTFGFYGMGWYRQAPGKERELVARITWRSGSTYYADSVKGRFTISRDNAKNTVYLQMNSLKPEDTAVYYCNKVPSYDFLGMDYWGLGTQVTVSS | low polyreactivity

From the nanobody polyreactivity screen of Harvey et al. (2022)
